Test results from the supplement of paper PMC9170038.

System: K4 kissing-loop RNA reporter
Assay: apparent KD of K4 kissing-loop reporter; higher = weaker reporter binding
Conditions: Eterna round: R107
Method: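 RNA-MaP round R107: designed RNA switches with theophylline, tryptophan, arginine or FMN aptamers are transcribed on-chip within common flanks. They are titrated with a labelled K4 kissing-loop RNA reporter in RNA-MaP buffer (100 mM Tris pH 7.5, 80 mM KCl, 4 mM MgCl2), without ligand or with the indicated ligand. Median apparent KD per design.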

[1] = input ligand: theophylline 20 uM
[2] = input ligand: tryptophan 2.4 mM
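Note: bound reporter read as fluorescence of individual clusters on recovered sequencing chips by microscopy, with normalized cluster intensities fitted with a binding model.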

| Sequence | apparent KD of K4 kissing-loop reporter (input ligand: FMN 200 uM) [nM] | apparent KD of K4 kissing-loop reporter (input ligand: arginine 13.2 mM) [nM] | apparent KD of K4 kissing-loop reporter (input ligand: none) [nM] | apparent KD of K4 kissing-loop reporter [1] [nM] | apparent KD of K4 kissing-loop reporter [2] [nM] |
| --- | --- | --- | --- | --- | --- |
| AGGAGCGUGGGAUGAAAAUCGCACGCUCCUCGAGGACCGGUACGGCCGCCACUCGCUCGCGCCGAGUGAUGUUCGGCCGGCGAAC [#2 Same State - Tryptophan A Attempt #12 (HarryS)] | 265 | 244 | 312 | 217 | 556 |
| AGGAUCACGUCAGUGAUGUUGACAAGAGAUACCAGAGACGAAAGUCUCCCUUGGCAGCUCACUGUGAUCCGUGACAAAGGUCACA [Omei KL hio A SS C v1] | 146 | 63.2 | 98.3 | 154 | 76 |
| AGGAUCACGUCAGUGAUGUUGACGAGAGAUACCAGAGACGAAAGUCUCCCUUGGCAGCUCAUCGUGAUCCGUGACAAAGGUCACA [Omei KL hio A SS C v4] | 338 | 203 | 317 | 278 | 297 |
| AGGCACGAGCAAGGAUAUCGAGUAGAGUGAUGUUCUGCCUGGGUUGGCUCGGAAGAGCCUUCUCAGCGAGAAGGUGCUCGUGCCU [#2 Same State - FMN A Attempt #19 (HarryS)] | 235 | 604 | 747 | 923 | 888 |
| AGGGCUGAGAGCGAUACCAGCGGUAACUGUAUGGUCCAAUAGAGUGAUGUUUUAUAGAGCCGCCCUUGGCAGCGCAAUCUAUUAG [XTheo-B5] | 245 | 65.5 | 424 | 184 | 129 |
| AGGUACAAAAGUACCGCUAGAUCCACGGAAGGAGCGCCGGAAACGGCAGGUAGGUCGCCGGGCAGUGAUGUUGCCGGAUCUAGCA [Omei KL Arginine A SS A v4] | 161 | 155 | 231 | 240 | 198 |
| AGGUCCGAGCCCGGAAGGGCUCGGACCUGUUAGGAUAUGACGUUAUUCAGAAGGGAUGGGUGGAGUGAUGUUCCACCCGCAAGGG [#2 Same State - FMN A Attempt #9 (HarryS)] | 70 | 96.3 | 111 | 102 | 86.5 |
| AGGUUUUGAUCAGGAUAUGCAUUGACGAUGAGAAUAUAGUGAUGUUAUAUACUACGAAUUAGUAAAGUAGAAGGGAUUGAGGUUU [SSFMNB.aB] | 747 | 565 | 820 | 898 | 518 |
| AGUACAACUGCGGCCGCCACUCAACGCAGAUCAAAGAUCUGCAUUCACUCAGUGAUGUUGAGUGAGAGGACCGGGCAGUUGUACA [Omei KL Tryp B SS B v3] | 855 | 718 | 742 | 645 | 166 |
| AGUACAGACACGGCCGCCACUCAGAAGAAGAUAGUAGUGAUGUUACUGAUGAUGAGAAUAAUAAAGAGGACCGGGUGUUGUGCAA [#09 K4 Tryptophan B Same State] | 107 | 100 | 125 | 113 | 71.5 |
| AGUACGGACGCGGCCGCCACUCAGGAGAAGAAGGUAGUGAUGUUGCUUAUGGAGAGAUCAAUCAAGAGGACCGGGUGCCGUGCAA [#07 K4 Tryptophan B Same State] | 285 | 340 | 426 | 534 | 338 |
| AGUAGUCGACAAGGAUAUACUAGGAGAGACGUUUGCACAUAACCUGCCCUACGAAGUGAUGUUUCGGUAGAAGGUGUUGGGCUGU [theeternabot_exclusion_KL_FMN_B_34] | 96.5 | 67 | 87.6 | 82.9 | 71.5 |
| AGUCCACUCUAAAGAGUGGACCUAAGGGAUACCAGUGAUGUUGGUCACCCUUGGCAGCCCACUGUCAUCGAUAAAGAUGGCAGAA | 120 | 98.1 | 114 | 122 | 116 |
| AGUGAUAUAUGAGGAUAUGGGUUUGUUAAAGAGUUAGUUUUAGUGUUGUUUGGUUAGUGAUGUUAUUUAGAAGGCGUGAGUGAUG [foopmullin] | 97.2 | 82.5 | 76 | 115 | 72.9 |
| AGUGAUGUUGUGUUAUGUUAGUGAAGUGAUCGAGGACCGGUACGGCCGCCACUCGAGUGAUGAGUGAGUGAUGUUUGUUUAGGGA [popmullin] | 1100 | 674 | 1140 | 990 | 486 |
| AGUGAUGUUUUUUUUAAGAGUGAUGUUUUUCGAGGACCGGUACGGCCGCCACUCGAGUGAUGAGUGCGGUGUUGUGAUGUUUAGU [ewmullin] | 606 | 402 | 530 | 475 | 467 |
| AGUGAUGUUUUUUUUAAGAGUGAUGUUUUUCGAGGACCGGUACGGCCGCCACUCGAGUGAUGAGUGCGUUGUUGUGAUGUUUAGU [#11 K4 Tryptophan A Exclusion] | 438 | 362 | 473 | 413 | 246 |
| AGUGGAACUUGCAGGUAUCCACAACUGGAUACCAGCUCGGAAACGAGCCCUUGGCAGCCAGAUCUUGCAGUGAUGUUGCAAGUUC [Design10] | 392 | 323 | 392 | 412 | 381 |
| AGUGUGCAAAAGCACACUCAGAACAAGGACAAGGAUAUCUACUAAUAGAGAAGGUGUCCUUUCCUUAGUGAUGUUAAGGAUCUGA [Omei KL FMN A SS D v4] | 270 | 424 | 596 | 486 | 564 |
| AGUGUUAGGUUAGAUACCAGCCGUUCGUGAAUAGUCUUCGAACCGCCAGUGAUGUUGGCAGGCCCUUGGCAGCUAACAGAACAGA [Lagelare] | 212 | 199 | 198 | 159 | 208 |
| AGUUCUUGCCGAAGGAGCGAGGCAGAGUGAUGUUCUGCACGAGGUCGAAAGACCUCGCUGCCUCAGGUAGGUCGCGGCAUGAACA [Omei KL Arginine B Exc A v2] | 897 | 504 | 1130 | 614 | 1300 |
| AUAAAUUUGUAGUGAUGUUGCAAGUUAGUCAAGGAUAUCAGGAAACUGAGAAGGUGAUAUCUCCUUUACUUGCAACUAGGAGGAG [KL-SSFMN-A11] | 88 | 87.3 | 91 | 90.8 | 85.7 |

| Sequence | apparent KD of K4 kissing-loop reporter (input ligand: FMN 200 uM) [nM] | apparent KD of K4 kissing-loop reporter (input ligand: arginine 13.2 mM) [nM] | apparent KD of K4 kissing-loop reporter (input ligand: none) [nM] | apparent KD of K4 kissing-loop reporter [1] [nM] | apparent KD of K4 kissing-loop reporter [2] [nM] |
| --- | --- | --- | --- | --- | --- |
| AUAAUAUUGCGAGGAUAUCCUUCCCACGUCGAAGUACCGUGCUUGAUGGAGUGAUGUUCGAUCAGAGGAGAAGGCGCGGUGUUGU [Same State FMN B GF23] | 734 | 543 | 656 | 611 | 571 |
| AUACCUCUACGAGUGAUGUUUGUUGAGGAUACCAGCAUGUAUAGUUGCCCUUGGCAGCCUUGGCUCGUGCGCUCCCUCCGAACCG [theeternabot_exclusion_KL_Theo_A_30] | 296 | 240 | 291 | 277 | 247 |
| AUACGUUUAAGUGAUACCAGACAUGUGAGUGAUGUUUACAUAUAUAUUUAAUAUUUAGCUGUCCCUUGGCAGCACAGUUUAUUUA [JR_ExcTheophyB_Sub001] | 350 | 374 | 441 | 399 | 308 |
| AUAGAAAAGUGGCACCCUCACUAAAACAGUCGAGGACCGGUACGGCCGCCACUCGCGCGCUUUAGUGAUGUUAAAGCUAGGCGGA | 269 | 228 | 265 | 259 | 245 |
| AUAGCACCUUAUGAUACCAGACGAGUGAUGUUCUGUGGUGUCGUCACAAGGCAAUCGACUGUCCCUUGGCAGCAUCAUUCUAUAU [theeternabot_exclusion_KL_Theo_B_31] | 563 | 531 | 453 | 722 | 730 |
| AUAUCUAGAGUGAUGUUCUAGUAAGCUGAAGGAGCGGACGAAAGUCCAGGUAGGUCGCAGUGUUUUUACACCUCAUGUGUAGGAG [KL-SSArg-A7 #analogue] | 118 | 128 | 107 | 163 | 130 |
| AUAUCUGUUCGAAAGAACGGAUCUUCGGAAGGAGCGCGUGAAAACGCAGGUAGGUCGCCGAAGUUAUUAGGUAGUGAUGUUACCU [Arginine A K4 7] | 129 | 96.4 | 113 | 101 | 109 |
| AUAUGCAGGAGAAGGAGCGUCGUUGCAAGUGAUGUUUGCAAGCGAGCUUACUAUAUACGACGACAGGUAGGUCGCUCCUGCGUAA [Arg B Ex t2] | 68.8 | 61.7 | 64.8 | 58.1 | 67.2 |
| AUCGUUGCCAUUAGGACAUACGGUCCUGAACGAGGACCGGUACGGCCGCCACUCGAGCACACGAGUGAUGUUCGUGGGCAACGAU [Tryp A SS t1] | 131 | 107 | 137 | 136 | 358 |
| AUCUUGUUUGGAGGAUAUUCUUUAUUCGACAUAACCUUCUAUAAGGUGCAGUGAUGUUGCAAUAUAGGAGAAGGUCGAGUGAGAU [Exclusion FMN B GF 17] | 239 | 174 | 188 | 166 | 188 |
| AUGCAUCAGACUUGAUACGGUGAAAUAGCCCGAGGACCGGUACGGCCGCCACUCGGUCCAGUGAUGUUGGAUAAUUAAUCUAGGU [theeternabot_sameState_KL_Trp_A_34] | 197 | 256 | 297 | 294 | 82.4 |
| AUGUAUGAAUUAGGAUAUCGUGAUCCAUGCAUAUAUAUGAUAAAUGGAUAUGUCGUAGUGAUGUUACGAGAAGGAGUGUGGAGUA [KL-XFMN-B1] | 62.6 | 71.5 | 64.3 | 93 | 45 |
| AUGUCUGAUAGCAGUGAUGUUGCUUCAGAUACCAGACGAGAUCAUGUCCCUUGGCAGCUGACACGGCACGUGCUAGGUUAGAUGA [whbob_Ex_Theo_A_th71] | 117 | 94.4 | 118 | 102 | 102 |
| AUUAAUAUCACGGCCGCCACUGUAUAUUGUUUUUAUAUUUAGAAUAAUUGCCAGUGAUGUUGGAACAGGACCGGGUGAGUUUAUA [#28 K4 Tryptophan B Same State] | 511 | 434 | 626 | 402 | 323 |
| AUUAAUUUCAGAGGAUAUGCUUUAUUAUUAUUUUUAAAUAAUAAAUGCAGUGAUGUUGCUUAUUAUGCAGAAGGCUGAUUUAUAA [JR_SSFMNB_Sub014] | 119 | 625 | 603 | 586 | 545 |
| AUUAUAAAGUCGGCCGCCACUGAGAGUAGUGAUGUUACUCUAUUCCUUUACAUAUUAUAGUUUAUCAGGACCGGGACAUCAGAUU [JR_ExcTryptoB_Sub018] | 268 | 214 | 279 | 246 | 199 |
| AUUAUAUAAUGGAGUGAUGUUCCAUCAGAUACCAGUGAAUUUGAACACCCUUGGCAGCUGUUGUUCAAAUAAUUUAAAUCCUUUA [JR_SSTheophyA_Sub019] | 129 | 150 | 132 | 166 | 103 |
| AUUCGUUUAUGUGAUACCAGACUUUGCAGUGAUGUUGCAUUAAUUUUUGAUUAUUAGUUUGUCCCUUGGCAGCACUAUUUAUUUA [JR_SSTheophyB_Sub004] | 40.2 | 81.5 | 44.8 | 80.1 | 36.6 |
| AUUCUGUUUUUAAUGUUUAUUGUAUAAUGGCAGGAUAUCGUAGAAGCGAGAAGGGCUUUUAUGCGUUAUGAGUGAUGUUUGUAGG [dhhyfvmullin] | 364 | 247 | 267 | 410 | 270 |
| AUUUAAUUAACUGAUACCAGACUUUUUGUUUUGUUUAUUACUAGUGAUGUUAGUGUUUCUGUCCCUUGGCAGCAGUAUCUACUUA [JR_ExcTheophyB_Sub015] | 134 | 202 | 131 | 239 | 122 |
| AUUUAGACGAGUGAUGUUCGUGUUAUUACAGAGGAUAUGCGUAAUUGCAGAAGGCUGUAUUUAUAUAUGUUAUGUAAUUUUAAAA [JR_ExcFMNA_Sub007] | 89.5 | 108 | 88 | 99.4 | 73.2 |
